Values joined by “and” are separate entries in the source; they are usually repeats but may differ in a detail not shown here. Equal values may be shown once.

This passage reports Kd results from patent US20240101708A1 (Genentech, published 2024).

For this experiment, the target named is T1, recombinant human RNF43 extracellular domain (human, UniProt Q68DV7 24-197).
T1 construct: extracellular domain; also called huRNF43; human RNF43 ECD
T1 sequence (looked up): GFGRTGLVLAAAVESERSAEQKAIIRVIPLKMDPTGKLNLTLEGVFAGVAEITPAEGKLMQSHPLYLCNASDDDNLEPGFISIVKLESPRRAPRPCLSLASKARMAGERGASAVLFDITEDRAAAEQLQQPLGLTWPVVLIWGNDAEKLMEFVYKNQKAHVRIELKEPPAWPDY
Kind of experiment: SPR Biacore 8K; antibody captured on Protein A; RNF43 ECD analyte; 25 C. The procedure: Antibodies were screened for binding to recombinant human RNF43 and ZNRF3 ECDs using a Biacore® 8 k instrument (GE Life Sciences). Briefly, antibodies diluted to 1 μg/ml in 1×HBSP buffer (Cytiva, BR100368) were captured on a Sensor Chip Protein A (GE Life Sciences) using a flow rate of 10 μl/minute and a contact time of 60 seconds. Binding of recombinant human RNF43 and ZNRF3 extracellular domain to the captured antibodies was analyzed at 25° C. using a single cycle kinetics method with a flow rate of 30 μl/minute, a contact time of 180 seconds and a dissociation time of 600 seconds. The concentration of recombinant human RNF43 and ZNRF3 extracellular domain in the single cycle kinetics were 0, 0.8, 4, 20, and 100 nM. Between cycles, the chip was regenerated using 10 mM Glycine HCl pH 1.5 injected for 30 seconds at 30 μl/minute. Data were evaluated using Biacore 8K Evaluation software (GE Life Sciences). Kinetic constants were obtained using a 1:1 binding model with the parameter RI set to zero. Cell surface ligase antibodies with sub-nanomolar affinities may provide advantages in certain instances, for example, in the degradation efficiency which is correlated with the durability of the ternary complex as shown in FIG. 5D.
For orientation: Surface plasmon resonance follows binding to a sensor surface in real time, without labels.

B1: RNF43-196 (antibody, V domains shown)
VH: QVQLQQSGAELVKPGSSVKISCKASGFTFTSNFMHWIKQQPGNGLEWIGWIYPGDGDTDYNQKFNGKATLTADKSSSTAYMELSSLTSEDSAVYFCARAYYGSYWYFDFWGPGTKVTVSS
VL: DVQMTQSPHNLAASPGESVSINCKASKSISKYLAWYQQKPGKVKKLLIYGGSTLQSGIPSRFSGSGSGTDFTLTISSLEPEDFGLYYCQQHNEYPPTFGGGTRLELQ
notes: Rat clone; VH/VL only
A word on the Kd: it is the equilibrium constant for the complex coming apart. For B1, the equilibrium dissociation constant (Kd) came out at 114 pM.

B2: RNF43-80 (antibody, V domains shown)
VH: EVQLVESGGGLVQPGRSLKVSCLASGFNFGDFGMNWIRQAPGKGLEWVSYISSTSGTIYYADTVKGRFTISRDNAKNTLYLQLSSLRSEDTALYYCARPAGRYFDYWGQGVLVTVSS
VL: DIVMTQSPSSLAVSAGETVTIDCKSNQSLLYSGNQKNYLAWYQQKPGQSPKLLIYWTSTRQSGVPDRFIGSGSGTEFTLTISSVQAEDLAIYYCQQYYHTPFTFGSGTKLEIK
notes: Rat clone; VH/VL only
For B2, the Kd was 480 pM.

B3: RNF43-181 (antibody, V domains shown)
VH: QIQLQQSGAELVKPGSSVKISCKSSAYRFTSNFIHWIRQQPGNGLEWIGWIYPGDGDAENNQKFNGKVILTADKSSSTAYMQLSSLTSEDSAVYFCARGVMTSLWYFDFWGPGTMVTVSS
VL: DVQMTQSPYNLAASPGESVSINCKASKSISKYLAWYQQKPGKTNKLLIYDGSTLQSGIPSRFSGSGSGTDFTLTIRSLEPEDFGLYYCQQHHEQPPTFGSGTKLEIK
notes: Rat clone; VH/VL only
Turning to B3, the Kd came to 85.9 pM.

B4: RNF43-71 (antibody, V domains shown)
VH: QVKLLQSGAALVKPGDSVKMSCKASGYTFTDHIIHWVKQSHGKSLEWIGYINPYSGSTNYNEKFKSKATLTVDRSNNTAYMEFSRLTSEDSAIYYCARKNYGGYGVMDAWGQGASVTVSS
VL: DIQMTQSPSLLSASVGDRVTLSCKASQNIYKNLAWHQQKLGEAPKLLIYYANSLQTGIPSRFSGSGFGTDYTLTISSLQPEDVATYFCQQSSSGWTFGGGTKLELK
notes: Rat clone; VH/VL only
With B4, the Kd turned out to be 30 pM.

B5: RNF43-136 (antibody, V domains shown)
VH: QVQLQQSGAELVKPGSSVKISCKASGYTFTSKFMHWIKQQPGSGLEWIGWIYPEHGNTKYNQKFDGKATLTADKSSSTAYMQLSSLTSGDSAVYFCARQSSQGAYAMDAWGQGTSVTVSS
VL: DIQMTQSPVSLSASLGQTVSIECLTSEGIPIDLAWYQQKSGKSPQLLIYAASRSQDGVPSRFSGSGSGTRYSLKISGMQPEDEADYFCQQTYKYPFTFGSGTRLEIK
notes: Rat clone; VH/VL only
Regarding B5, the Kd worked out at 1910 pM.

B6: RNF43-130 (antibody, V domains shown)
VH: QVQLVQSGAEVVKPGSSVKISCKASGYTFTGNFIHWIKQQPGNGLEWIGWIYPGDGDTTYNQKFSGKATLTADKSSSTAYMQLSNLTSEDSAVYFCAKWRDLSSDWFAYWGQGTLVTVSS
VL: DIVMTQSPVSLTVSEGEMVTINCKSSQSLLSSGNQKNYLAWYQQKPGQSPRLLIYFTSTRQSGVPDRFIGSGSGTDFTLTISDVQAEDLADYYCLQHYSYPNTFGAGTKLELK
notes: Rat clone; VH/VL only
Consider B6, for which the Kd stood at 134 pM.

B7: RNF43-104 (antibody, V domains shown)
VH: QVQLKESGPGLVQPSQTLSLTCSVSGFSLTSFHVHWVRQPPGKGLEWMGLMWSNGDTSYNSDLKSRLSISRDTSKSQVFLKMHSLQTEDTATYYCARTDVYHGFGAMDAWGQGTSVTVSS
VL: DIQMTQSPSFLSASLGNSITITCHASQFIKGWLAWYQQKSGNAPELLIYKSSSLHSGVPSRFSGSGSGTDYILTISNLQPEDIATYYCQHYQGFPLTFGSGTKLEIK
notes: Rat clone; VH/VL only
For the molecule B7, the Kd worked out at 9120 pM.

B8: RNF43-177 (antibody, V domains shown)
VH: QVKLLQSGAALVKPGDSAKMSCKASGYTFTDSIIHWVKQSHGKSLEWIGYINPYSGGIQYNEKFKNKATLTVDKSSSTAYVEFSRLTSEDSAIYYCAREIRGMDAWGQGTSVTVSS
VL: DIVLTQSPATLSVTPGESVSLSCRASQGISTSLHWYQQKSTESPRLLIKYASQSVSGIPSRFSGSGSGTDFTLSINRVESEDFSVYYCQQSYNLPRTFGPGTKLELK
notes: Rat clone; VH/VL only
In the case of B8, the Kd was 6470 pM.

B9: RNF43-116 (antibody, V domains shown)
VH: QVQLQQSGAELAKPGSSVKISCKASGYTFTSYYISWIKQTTGQDLEYIGYVNTRSGGTNYNEKFKVKATLTVDNSSSTAFMQLSSLTPDDSAVYYCARGRTDWGQGTLVTVSS
VL: DIQMTQSPSLLSASVGDRVTVNCKASQNIYKNLEWYQQKHGEAPKLLIYYTNNLQTGISSRFSGSGSGTDYTLTISSLQPEDVATYYCFQYNSGYTFGAGTKLELK
notes: Rat clone; VH/VL only
On to B9, for which the Kd was found to be 1420 pM.

B10: RNF43-86 (antibody, V domains shown)
VH: EVQLVESGGGLVQPGRSLKLSCAASGFTFTNYYMAWVRQAPTKGLEWVASISPSGDTTYYPDSVKGRFTVSRDNAKSTQYLQMDNLRSEDTATYYCARDAYTYYGYKGWYFDFWGPGTMVTVSS
VL: QFVLTQPNSVSTNLGSAVKLSCKRSTDDIGSNYVNWYQQHEGRSPTTMIYRDDKRPDGVPDRFSGSIDRSSNSALLTINNVQTEDEADYFCQSYSSGIYIFGGGTKLTVL
notes: Rat clone; VH/VL only
Turning to B10, the Kd turned out to be 17300 pM.

B11: RNF43-53 (antibody, V domains shown)
VH: EVQLVESGGGLVQPGRSLKLSCGASGFSFSTYYMVWVRQAPTKGLEWVASISPNGGNTYYPDSVKGRFTISRDNAKSTQYLQMDSLRSEDTATYYCATDGSYYYDGYRWLAYWGQGTLVTVSS
VL: QFVLTQPNSVSTNLGSTVKLSCKRSTGNIGSNYVSWYQQHEGRSPTTLIYRDDKRPDGVPDRFSGSIDRSSNSALLTINNVQTEDEAGYFCQSFSSGLFIFGGGTKLTVL
notes: Rat clone; VH/VL only
Regarding B11, the Kd was determined as 3300 pM.

B12: RNF43-61 (antibody, V domains shown)
VH: EVQLVESGGDLVQPGRSLTLSCAASGFIFSDYYMAWVRQAPKKGLEWVASITYEGSSTYYGDSVKGRFTISRDNTKSTLYLLMNSLRSDDSATYYCARHGAHYTYNYAYYFDYWGQGVMVTVSS
VL: DIMLTQSPTTLSVIPGENISLSCRASQSVGTNLHWYQQKPSESPRVLINYASQSISGIPSRFSGSGSGTDFTLNINRVEPEDSSVYYCQQSKSWPFTFGSGTKLEIK
notes: Rat clone; VH/VL only
Regarding B12, the Kd was 430 pM.

B13: RNF43-74 (antibody, V domains shown)
VH: EVQLVESGGDLVQPGRSLTLSCAASGFTFSDYYMAWVRQAPKKGLEWVASITYEGSSTYYGDSVKGRFTISRDNTKSTLYLLMNSLRSDDTATYYCARHGAHYTYNYAYYFDYWGQGVMVTVSS
VL: DIMLTQSPTTLSVIPGENISLSCRASQSVGTNLHWYQQKPSESPRVLINYASQSISGIPSRFSGSGSGTDFTLNINRVEPEDSSVYYCQQSKSWPFTFGSGTKLEIK
notes: Rat clone; VH/VL only
B13: the Kd worked out at 350 pM.

B14: RNF43-31 (antibody, V domains shown)
VH: AVQLVESGGGSVQPGRSMRLSCAASGFTFSNYDMTWVRQAPTKGLEWVASITYDGGSTYSRDSVKGRFTISRDNAKSTLYLQMDSLRSEDTATYYCTTDRGRYLPYYFDYWGQGVMVTVSA
VL: DVVLTQTPVSLSVTLGDQASISCRSSQSLEYSDGYSYLEWYLQKPGQSPQLLIYEVSSRFSGVPDRFIGSGSGTDFTLKISRVEPEDLGVYYCFQAIHDPTFGAGTKLELK
notes: Rat clone; VH/VL only
For the molecule B14, the Kd amounted to 130 pM.

B15: RNF43-41 (antibody, V domains shown)
VH: EVHLVESGGGLVQPGRSVKLSCTASGFTFSYYDMAWVRQAPTKGLEWVASLTYDGSSTYYRDSVKGRFTISRDNAKSTLYLQMDSLRSEDTATYYCTTDRGRYLPYHFDYWGQGVMVTVSS
VL: DVVLTQTPVSLSVTLGDQASISCRSSQSLEYSDGYTYLEWYLQKPGQSPQLLIYEVSTRFSGVPDRFIGSGSGTDFTLKISRVEPEDLGVYYCFQATHDPTFGAGTKLELK
notes: Rat clone; VH/VL only
Take B15: the Kd came to 370 pM.

B16: RNF43-67 (antibody, V domains shown)
VH: AVQLVESGGGSVQPGRSMRLSCAASGFTFSNYDMTWVRQAPTKGLEWVASITSDGGSTYSRDSVKGRFTISRDNAKSTLYLQMDSLRSEDTATYYCTTDRGRYLPYYFDYWGQGVMVTVSA
VL: DVVLTQTPVSLSVTVGDQASISCRSSQSLEYSDGYSYLEWYLQKPGQSPQLLIYEVSSRFSGVPDRFIGSGSGTDFTLKISRVEPEDLGVYYCFQAIHDPTFGAGTKLELK
notes: Rat clone; VH/VL only
For the molecule B16, the Kd was found to be 590 pM.

B17: RNF43-38 (antibody, V domains shown)
VH: EVQLVESGGGLVQPGTSLKISCVASGFTFSDYWMSWVRQTPGKTMEWIGDIKSDGSYTNYAPSLKNRFTISRDNAKSTLYLQMNNVRSEDTATYYCTRDAYRYNYVHYGLDAWGQGASVTVSS
VL: QFVLTQPNSVSANLGSTVKLSCNRSTGNIGSNYVSWYQQHEGRSPTTMLYRDGKRPDGIPDRFSGSIDGSSNSALLTINNVQTEDEADYFCQSYSSGIKYIFGGGTKLTVL
notes: Rat clone; VH/VL only
Regarding B17, the equilibrium dissociation constant (Kd) was 4930 pM and 8660 pM.

B18: RNF43-56 (antibody, V domains shown)
VH: EVQLVESGGGLVQPGTSLKISCVASGFTFSDYWMSWVRQTPGRTMEWIGDIKYDGSYTNYAPSLKNRFTISRDNAKSILYLQMNNVRSEDTATYYCTRDAYGYNYVHYGLDAWGQGASVTVSS
VL: QFVLTQPNSVSSNLGSTVKLSCNRSTGNIGSNYVSWYQQHEGRSPTTMIYRDDKRPDGIPDRFSGSIDGSSNSALLTINNVQTEDEADYFCQSYSSDIKYIFGGGTKLTVL
notes: Rat clone; VH/VL only
B18: the Kd was determined as 1840 pM.

B19: RNF43-145 (antibody, V domains shown)
VH: EVQLKESGPGLVQPSQTLSLTCTVSGFSLTDYSVYWVRQPPGKGLEWMGVMWSGGTTAYNSALKSRLSISRDTSKSQVFLKMNSLQTEDTAIYYCTRGGKYDGTYYYGWYFDFWGPGTMVTVSS
VL: DVVLTQSPATLSVTPGERISLSCRASESVDTYLYWYQQKPNESPRLLIKYASQSISGIPSRFSGSGSGTDFTLSINGVELEDLSIYYCQQGNSLPLTFGSGTKLEIK
notes: Rat clone; VH/VL only
For B19, the Kd was found to be 504 pM.
